Results reported in patent US20130209454A1.

What was measured:
Assay in all cases: cell-based or functional assay
[1] = molecular target: Env of HIV-1 strain 191821_E6_1 (HIV-1)
[2] = molecular target: Env of HIV-1 strain 3016.v5.c45 (HIV-1)
[3] = molecular target: Env of HIV-1 strain 3301.v1.c24 (HIV-1)
[4] = molecular target: Env of HIV-1 strain 6480.v4.c25 (HIV-1)
[5] = molecular target: Env of HIV-1 strain 6535.3 (HIV-1)
[6] = molecular target: Env of HIV-1 strain 6540.v4.c1 (HIV-1)
[7] = molecular target: Env of HIV-1 strain 6545.v4.c1 (HIV-1)
[8] = molecular target: Env of HIV-1 strain 9004SS_A3_4 (HIV-1)
[9] = molecular target: Env of HIV-1 strain CNE5 (HIV-1)
[10] = molecular target: Env of HIV-1 strain CNE53 (HIV-1)
[11] = molecular target: Env of HIV-1 strain CNE58 (HIV-1)
[12] = molecular target: Env of HIV-1 strain Ce0393_C3 (HIV-1)
[13] = molecular target: Env of HIV-1 strain Ce1172_H1 (HIV-1)
[14] = molecular target: Env of HIV-1 strain Du422.1 (HIV-1)
[15] = molecular target: Env of HIV-1 strain HIV-16055-2.3 (HIV-1)
[16] = molecular target: Env of HIV-1 strain P0402_c2_11 (HIV-1)
[17] = molecular target: Env of HIV-1 strain P1981_C5_3 (HIV-1)
[18] = molecular target: Env of HIV-1 strain Q461.e2 (HIV-1)
[19] = molecular target: Env of HIV-1 strain T251-18 (HIV-1)
[20] = molecular target: Env of HIV-1 strain T278-50 (HIV-1)
[21] = molecular target: Env of HIV-1 strain X1193_c1 (HIV-1)
[22] = molecular target: Env of HIV-1 strain X2088_c9 (HIV-1)
[23] = molecular target: Env of HIV-1 strain ZM249M.PL1 (HIV-1)
[24] = molecular target: HIV-1 Env of strain 0815.v3.c3 (HIV-1)
[25] = molecular target: HIV-1 Env of strain 211-9 (HIV-1)
[26] = molecular target: HIV-1 Env of strain 246F C1G (HIV-1)
[27] = molecular target: HIV-1 Env of strain 6041.v3.c23 (HIV-1)
[28] = molecular target: HIV-1 Env of strain 6240_08_TA5_4622 (HIV-1)
[29] = molecular target: HIV-1 Env of strain 6535.3 (HIV-1)
[30] = molecular target: HIV-1 Env of strain 6811.v7.c18 (HIV-1)
[31] = molecular target: HIV-1 Env of strain 9004SS_A3_4 (HIV-1)
[32] = molecular target: HIV-1 Env of strain BF1266.431a (HIV-1)
[33] = molecular target: HIV-1 Env of strain BJOX009000.02.4 (HIV-1)
[34] = molecular target: HIV-1 Env of strain BJOX010000.06.2 (HIV-1)
[35] = molecular target: HIV-1 Env of strain BJOX015000.11.5 (HIV-1)
[36] = molecular target: HIV-1 Env of strain CAAN5342.A2 (HIV-1)
[37] = molecular target: HIV-1 Env of strain CAP45.2.00.G3 (HIV-1)
[38] = molecular target: HIV-1 Env of strain CNE17 (HIV-1)
[39] = molecular target: HIV-1 Env of strain CNE19 (HIV-1)
[40] = molecular target: HIV-1 Env of strain CNE21 (HIV-1)
[41] = molecular target: HIV-1 Env of strain Ce1086_B2 (HIV-1)
[42] = molecular target: HIV-1 Env of strain Ce2010_F5 (HIV-1)
[43] = molecular target: HIV-1 Env of strain Ce703010054_2A2 (HIV-1)
[44] = molecular target: HIV-1 Env of strain Du422.1 (HIV-1)
[45] = molecular target: HIV-1 Env of strain HIV-0013095-2.11 (HIV-1)
[46] = molecular target: HIV-1 Env of strain P1981_C5_3 (HIV-1)
[47] = molecular target: HIV-1 Env of strain Q259.d2.17 (HIV-1)
[48] = molecular target: HIV-1 Env of strain Q842.d12 (HIV-1)
[49] = molecular target: HIV-1 Env of strain R1166.c01 (HIV-1)
[50] = molecular target: HIV-1 Env of strain TRJO4551.58 (HIV-1)
[51] = molecular target: HIV-1 Env of strain X2131_C1_B5 (HIV-1)

Sequence of NIH45-46 (antibody) (VH): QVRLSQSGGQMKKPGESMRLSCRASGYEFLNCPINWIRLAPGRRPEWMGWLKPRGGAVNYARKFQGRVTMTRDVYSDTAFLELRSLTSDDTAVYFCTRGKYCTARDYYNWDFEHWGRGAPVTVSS
Sequence of NIH45-46 (antibody) (V domain): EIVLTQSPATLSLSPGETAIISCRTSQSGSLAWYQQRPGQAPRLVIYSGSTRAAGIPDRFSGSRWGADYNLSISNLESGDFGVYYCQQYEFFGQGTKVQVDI

Substance: NIH45-46 (antibody)
- IC80 [1]: 0.46 µg/mL
- IC80 [2]: > 50 µg/mL
- IC80 [3]: 0.033 µg/mL
- IC80 [4]: 0.1 µg/mL
- IC80 [5]: 0.54 µg/mL
- IC80 [6]: > 50 µg/mL
- IC80 [7]: > 50 µg/mL
- IC80 [8]: 0.65 µg/mL
- IC80 [9]: 0.41 µg/mL
- IC80 [10]: 0.039 µg/mL
- IC80 [11]: 2.08 µg/mL
- IC80 [12]: 0.936 µg/mL
- IC80 [13]: > 50 µg/mL
- IC80 [14]: > 50 µg/mL
- IC80 [15]: 0.06 µg/mL
- IC80 [16]: 0.214 µg/mL
- IC80 [17]: 0.24 µg/mL
- IC80 [18]: 0.291 µg/mL
- IC80 [19]: 3.68 µg/mL
- IC80 [20]: > 50 µg/mL
- IC80 [21]: 0.064 µg/mL
- IC80 [22]: > 50 µg/mL
- IC80 [23]: 0.053 µg/mL
- IC50, pseudovirus neutralization [24]: 0.014 µg/mL
- IC50, pseudovirus neutralization [25]: > 50 µg/mL
- IC50, pseudovirus neutralization [26]: > 50 µg/mL
- IC50, pseudovirus neutralization [27]: 0.006 µg/mL
- IC50, pseudovirus neutralization [28]: 0.44 µg/mL
- IC50, pseudovirus neutralization [29]: 0.14 µg/mL
- IC50, pseudovirus neutralization [30]: 0.035 µg/mL
- IC50, pseudovirus neutralization [31]: 0.18 µg/mL
- IC50, pseudovirus neutralization [32]: 0.01 µg/mL
- IC50, pseudovirus neutralization [33]: 0.26 µg/mL
- IC50, pseudovirus neutralization [34]: 0.87 µg/mL
- IC50, pseudovirus neutralization [35]: 0.06 µg/mL
- IC50, pseudovirus neutralization [36]: 0.15 µg/mL
- IC50, pseudovirus neutralization [37]: > 50 µg/mL
- IC50, pseudovirus neutralization [38]: 0.261 µg/mL
- IC50, pseudovirus neutralization [39]: 0.07 µg/mL
- IC50, pseudovirus neutralization [40]: 6.01 µg/mL
- IC50, pseudovirus neutralization [41]: 0.04 µg/mL
- IC50, pseudovirus neutralization [42]: 0.101 µg/mL
- IC50, pseudovirus neutralization [43]: 0.159 µg/mL
- IC50, pseudovirus neutralization [44]: > 50 µg/mL
- IC50, pseudovirus neutralization [45]: 0.01 µg/mL
- IC50, pseudovirus neutralization [46]: 0.08 µg/mL
- IC50, pseudovirus neutralization [47]: 0.043 µg/mL
- IC50, pseudovirus neutralization [48]: 0.031 µg/mL
- IC50, pseudovirus neutralization [49]: 0.31 µg/mL
- IC50, pseudovirus neutralization [50]: 0.04 µg/mL
- IC50, pseudovirus neutralization [51]: 0.23 µg/mL
